Laboratory results reported in US20120058906A1 (published 2012).

What was measured:
[1] = molecular target: T1, rHuman IGF-1 sR (IGF-1 sR), CF (R&D Systems Cat#391-GR) (human, UniProt P08069 31-932); assay: ECL (MSD Multi-Spot) titration, antigen spotted on plate; Fab 15 nM; blank spot 536
T1 construct: Bought soluble receptor; also called insulin-like growth factor-1 soluble receptor; IGF-R1

[2] = molecular target: T2, Recombinant Human DLL4 (R&D Systems Cat#1506-D4/CF) (human, UniProt Q9NR61 27-524); assay: as above
T2 construct: Bought recombinant protein; also called delta-like protein 4

[3] = molecular target: T3, rHuman ErbB2/Fc Chimera, CF (R&D Systems Cat#1129-ER) (human, UniProt P04626 23-652); assay: as above
T3 construct: Bought Fc chimera; also called HER2/neu; human epidermal growth factor 2 receptor; Fc part of the bought chimera not given

[4] = molecular target: T4, rHuman CD44/Fc Chimera, CF (R&D Systems Cat#3660-CD) (human, UniProt P16070 21-220); assay: as above
T4 construct: Bought Fc chimera; Fc part of the bought chimera not given

[5] = molecular target: T1, rHuman IGF-1 sR (IGF-1 sR), CF (R&D …); assay: ECL (MSD Multi-Spot) titration, antigen spotted on plate; Fab 60 nM; blank spot 1433
[6] = molecular target: T2, Recombinant Human DLL4 (R&D Systems …); assay: as above
[7] = molecular target: T3, rHuman ErbB2/Fc Chimera, CF (R&D …); assay: as above
[8] = molecular target: T4, rHuman CD44/Fc Chimera, CF (R&D Systems …); assay: as above
[9] = molecular target: T1, rHuman IGF-1 sR (IGF-1 sR), CF (R&D …); assay: ECL (MSD Multi-Spot) titration, antigen spotted on plate; Fab 3.75 nM; blank spot 191
[10] = molecular target: T2, Recombinant Human DLL4 (R&D Systems …); assay: as above
[11] = molecular target: T3, rHuman ErbB2/Fc Chimera, CF (R&D …); assay: as above
[12] = molecular target: T4, rHuman CD44/Fc Chimera, CF (R&D Systems …); assay: as above
[13] = molecular target: T1, rHuman IGF-1 sR (IGF-1 sR), CF (R&D …); assay: ECL (MSD Multi-Spot) titration, antigen spotted on plate; Fab 0.9375 nM; blank spot 153
[14] = molecular target: T2, Recombinant Human DLL4 (R&D Systems …); assay: as above
[15] = molecular target: T3, rHuman ErbB2/Fc Chimera, CF (R&D …); assay: as above
[16] = molecular target: T4, rHuman CD44/Fc Chimera, CF (R&D Systems …); assay: as above
[17] = molecular target: T5, rHuman IGF-1 sR, (IGF-1 sR), CF (R&D Systems Cat#391-GR) (human, UniProt P08069 31-932); assay: MSD ECL multi-spot plate; Fab 70 nM; blank spot 635
T5 construct: also called insulin-like growth factor-1 soluble receptor; IGF-R1

[18] = molecular target: T6, Recombinant Human DLL4 (R&D Systems Cat#1506-D4/CF) (human, UniProt Q9NR61 27-524); assay: as above
T6 construct: also called delta-like protein 4

[19] = molecular target: T7, rHuman ErbB2/Fc Chimera, CF (R&D Systems Cat#1129-ER) (human, UniProt P04626 23-652); assay: as above
T7 construct: also called HER2/neu; human epidermal growth factor 2 receptor; Fc part of the bought chimera not given

[20] = molecular target: T8, rHuman HGF R/c-MET/Fc Chimera, CF (R&D Systems Cat#358-MT/CF) (human, UniProt P08581 25-932); assay: as above
T8 construct: also called HGF R/Fc; hepatocyte growth factor receptor; Fc part of the bought chimera not given

[21] = molecular target: T9, rHuman Notch-1/Fc Chimera, CF (R&D Systems Cat#3647-TK) (human, UniProt P46531 19-526); assay: as above
T9 construct: Fc part of the bought chimera not given

[22] = molecular target: T10, rHuman CD44/Fc Chimera, CF (R&D Systems Cat#3660-CD) (human, UniProt P16070 21-220); assay: as above
T10 construct: Fc part of the bought chimera not given

[23] = molecular target: T5, rHuman IGF-1 sR, (IGF-1 sR), CF (R&D …); assay: MSD ECL multi-spot plate; Fab 17.5 nM; blank spot 304
[24] = molecular target: T6, Recombinant Human DLL4 (R&D Systems …); assay: as above
[25] = molecular target: T8, rHuman HGF R/c-MET/Fc Chimera, CF (R&D …); assay: as above
[26] = molecular target: T9, rHuman Notch-1/Fc Chimera, CF (R&D …); assay: as above
[27] = molecular target: T5, rHuman IGF-1 sR, (IGF-1 sR), CF (R&D …); assay: MSD ECL multi-spot plate; Fab 280 nM; blank spot 1691
[28] = molecular target: T6, Recombinant Human DLL4 (R&D Systems …); assay: as above
[29] = molecular target: T7, rHuman ErbB2/Fc Chimera, CF (R&D …); assay: as above
[30] = molecular target: T8, rHuman HGF R/c-MET/Fc Chimera, CF (R&D …); assay: as above
[31] = molecular target: T9, rHuman Notch-1/Fc Chimera, CF (R&D …); assay: as above
[32] = molecular target: T10, rHuman CD44/Fc Chimera, CF (R&D Systems …); assay: as above
[33] = molecular target: T5, rHuman IGF-1 sR, (IGF-1 sR), CF (R&D …); assay: MSD ECL multi-spot plate; Fab 4.375 nM; blank spot 305
[34] = molecular target: T6, Recombinant Human DLL4 (R&D Systems …); assay: as above
[35] = molecular target: T7, rHuman ErbB2/Fc Chimera, CF (R&D …); assay: as above
[36] = molecular target: T8, rHuman HGF R/c-MET/Fc Chimera, CF (R&D …); assay: as above
[37] = molecular target: T9, rHuman Notch-1/Fc Chimera, CF (R&D …); assay: as above
[38] = molecular target: T10, rHuman CD44/Fc Chimera, CF (R&D Systems …); assay: as above
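Also: blank spot per well as comparator with Hit at signal to blank ratio of 4 or more.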

B1: Fab VH1-3_IGHD4-23*01_IGHJ4*01 & L12_IGKJ1*01 (Fab, V domains shown)
VH: QVQLVQSGAEVKKPGASVKVSCKASGYTFTSYAMHWVRQAPGQRLEWMGWSNAGNGNTKYSQEFQGRVTITRDTSASTAYMELSSLRSEDMAVYYCARDDYGGNSDYFDYWGQGTLVTVSS
VL: not shown
ECL signal [1]: 859 | ECL signal [2]: 7730 | ECL signal [3]: 740 | ECL signal [4]: 748 | ECL signal [5]: 2670 | ECL signal [6]: 17300 | ECL signal [7]: 2160 | ECL signal [8]: 2360 | ECL signal [9]: 314 | ECL signal [10]: 1570 | ECL signal [11]: 291 | ECL signal [12]: 307 | ECL signal [13]: 204 | ECL signal [14]: 453 | ECL signal [15]: 268 | ECL signal [16]: 251

B2: Fab VH1-46_IGHD2-15*01_IGHJ2*01 & L12_IGKJ1*01 (Fab, V domains shown)
VH: QVQLVQSGAEVKKPGASVKVSCKASGYTFTSYYMHWVRQAPGQGLEWMGIINPSGGSTSYAQKFQGRVTMTRDTSTSTVYMELSSLRSEDTAVYYCAREGYCSGGSCYSYWYFDLWGRGTLVTVSS
VL: not shown
ECL signal [17]: 1320 ECL signal | ECL signal [18]: 2750 ECL signal | ECL signal [19]: 1360 ECL signal | ECL signal [20]: 1290 ECL signal | ECL signal [21]: 1490 ECL signal | ECL signal [22]: 1370 ECL signal | ECL signal [23]: 626 ECL signal | ECL signal [24]: 1220 ECL signal | ECL signal [25]: 565 ECL signal | ECL signal [26]: 680 ECL signal | ECL signal [27]: 3530 ECL signal | ECL signal [28]: 8110 ECL signal | ECL signal [29]: 3950 ECL signal | ECL signal [30]: 3560 ECL signal | ECL signal [31]: 4380 ECL signal | ECL signal [32]: 4070 ECL signal | ECL signal [33]: 369 ECL signal | ECL signal [34]: 558 ECL signal | ECL signal [35]: 384 ECL signal | ECL signal [36]: 193 ECL signal | ECL signal [37]: 480 ECL signal | ECL signal [38]: 424 ECL signal
